Data published in the nanobody polyreactivity screen of Harvey et al. (2022).

Assay: yeast display, Sf9 membrane polyspecificity reagent, FACS + sequencing; frameworks hold sequencing errors
Outline: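 Polyreactivity labels are assigned by the sorting gate from which each nanobody was recovered. The gates were low and high (top ~1%), set on anti-HA fluorescence for expression and streptavidin fluorescence for reagent binding. Before sorting, galactose-induced (36–48 hours) yeast display cells were stained for 1 hour at 4 °C with 10% biotinylated, detergent-solubilized Sf9 membrane reagent.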

With “QVQLVESGGGLVQAGGSLRLSCAASGSTFKSYAMGWYRQAPGKERELVAAITHRGSTYYADSVKGRFTTSRDNAKNTVYLQMNSLKPEDTAVYYCNVRRIGNGRRVDYWGQGTQVTVSS” as the sequence, how does the “polyreactivity (PSR sort gate)” value read?
The value was “high polyreactivity”.

For “QVQLVESGGGLVQAGGSLRLSCAASGSTFKSYAMGWYRQEPGKERELVAAITVSGGSTYYADSVKGRFTISRDNAKNTVYLQMNSLKPEDTAVYYCAADSVLLKDTGYDYWGQGTQVTVSS”, which “polyreactivity (PSR sort gate)” value is on record?
Its value is “low polyreactivity”.

Which “polyreactivity (PSR sort gate)” value does the source give for “QVQLVESGGGLVQAGGSLRLSCAASGSTFKTYTMGWYRQAPGKERELVAGITSGGSTSYADSVKGRFTISRDNAKNTVYLQMNSLKPEDTAVYYCNADAYLVIYFYTVRDYGYDYWGQGTQVTVSS” here?
Its value is “low polyreactivity”.

For “QVQLVESGGGLVQAGGSLRLSCAASGSTFKVYAMGWYRQAPGKERELVAAISQSGGSTYYADSVKGRFTITRDNAKNTVYFQMKSLKPEDTAVYYCAVRTYVYHWSFSSLPYDYWGQGTQVTVSS”, which “polyreactivity (PSR sort gate)” value is on record?
The value was “high polyreactivity”.

Which “polyreactivity (PSR sort gate)” value does the source give for “QVQLVESGGGLVQAGGSLRLSCAASGSTFKVYAMGWYRQAPGKERELVAVISGGGRTNYADSVKGRFTISRDNAKNTVYLQMNSLNPEDTAVYYSAALGPYGSARRKYGYWGQGTQVTVSS” here?
The value was “high polyreactivity”.

Which “polyreactivity (PSR sort gate)” value does the source give for “QVQLVESGGGLVQAGGSLRLSCAASGSTFKWYAMGWYRQAPGKERELVAAISQSGSRTYYADSVKGRFTISRDNAKNTVYLQMNSLKPEDTAVYYCNARRYIYNYDYWGQGTQVTVSS” here?
The value was “high polyreactivity”.

For “QVQLVESGGGLVQAGGSLRLSCAASGSTFKYYAMGWSRQAPGKERELVAAISYRGGRTYYADSVKGRFTISRDNAKNTVYLQMNSLKPEDTAVYYCPAVKPYYIQYQGSAGYDYWGQGTQVTVSS”, which “polyreactivity (PSR sort gate)” value is on record?
The value was “high polyreactivity”.

Which “polyreactivity (PSR sort gate)” value does the source give for “QVQLVESGGGLVQAGGSLRLSCAASGSTFKYYAMGWYRQAPGKERELVAAITWRGGSTYYADSVKGRFTISRDNAKNTVYLQMNSLKPEDTAVYYCNRAYLYAYRSWWETYLRGDYWGQGTQVTVSS” here?
The value was “high polyreactivity”.

For “QVQLVESGGGLVQAGGSLRLSCAASGSTFKYYAMGWYRQAPGKERELVARISSGGRTYYADSVKGRFTISRDNAKNTVYLQMNSLKPEDTAVYYCNAQGYTTYRGDYWGQGTQVTVSS”, which “polyreactivity (PSR sort gate)” value is on record?
The value was “high polyreactivity”.

Which “polyreactivity (PSR sort gate)” value does the source give for “QVQLVESGGGLVQAGGSLRLSCAASGSTFKYYVMGWYRQAPGKEREFVAAITLRGGRTYYADSVKGRFTISRDNAKNTVYLQMNSLKPEDTAVYYCNAAYYLGWAHGTGRVEYDYWGQGTQVTVSS” here?
Its value is “high polyreactivity”.

With “QVQLVESGGGLVQAGGSLRLSCAASGSTFLANAMGWYRQAPGKERELVATISSGGSTNYADSVKGRFTISRDNAKNTVYLQMNSLKPEDTAVYYCAAEYWYAWQEYGYWGQGTQVTVSS” as the sequence, how does the “polyreactivity (PSR sort gate)” value read?
The value was “low polyreactivity”.

With “QVQLVESGGGLVQAGGSLRLSCAASGSTFLANAMGWYRQAPGKEWELVATISSGGSTNYADSVKGRFTISRDNAKNTVYLQMNSLKPEDTAVYYCAAEYWYAWQEYGYWGQGTQVTVSS” as the sequence, how does the “polyreactivity (PSR sort gate)” value read?
The value was “low polyreactivity”.

For “QVQLVESGGGLVQAGGSLRLSCAASGSTFLDNAMGWFRQAPGKERELVAAITSGDSTKYADSVKGRFTISRDNEKNTVYLQMNSLKPEDTAVYYCAADVGRNKMDYWGQGTQVTVSS”, which “polyreactivity (PSR sort gate)” value is on record?
Its value is “low polyreactivity”.

Which “polyreactivity (PSR sort gate)” value does the source give for “QVQLVESGGGLVQAGGSLRLSCAASGSTFLENAMGWYRQAPGKEREFVAAISKSGGSTSYADSVKGRFTISRDNAKNTVYLQMNSLKPEDTAVYYCATRRSRAYDYWGQGTQVTVSS” here?
Its value is “high polyreactivity”.

For “QVQLVESGGGLVQAGGSLRLSCAASGSTFLGYDMGWYRHAPGKERELVATISKSGGSTHYADSVKGRFTISRDNAKNTVYLQMNSLKPEDTAVYYCAADYYQRYYKKSGEYDYWGQGTQVTVSS”, which “polyreactivity (PSR sort gate)” value is on record?
The value was “low polyreactivity”.

For “QVQLVESGGGLVQAGGSLRLSCAASGSTFLGYVMGWYRQAPGKEREFVAAITWSVGSTYYADSVKGRFTISRDNAKNTVYLQMNSLKPEDTAVYYCAVRWVYANIYPDMEYWGQGTKVTVSS”, which “polyreactivity (PSR sort gate)” value is on record?
The value was “low polyreactivity”.

For “QVQLVESGGGLVQAGGSLRLSCAASGSTFLHYAMGWYRQAPGKERELVAAISRRGGRTYYADSVKGRFTISRDNAKNTVYLQMNSLKPEDTAVYYCAVDGIRDGYWIFYYWGQGTQVTVSS”, which “polyreactivity (PSR sort gate)” value is on record?
Its value is “low polyreactivity”.
